± gives the uncertainty stated by the source.
B1: POU domain, class 2, transcription factor 3, residues 186 to 260; numbered along this chain, Q9UKI9 (parent)
chain: SDLEELEKFAKTFKQRRIKLGFTQGDVGLAMGKLYGNDFSQTTISRFEALNLSFKNMCKLKPLLEKWLNDAESSP

Variants of: B1
Assay: abundance fitness (aPCA) (normalised: wild type 0, dead -1); higher = more abundant; growth selection in yeast, the domain comes from the species named
Conditions: Homo sapiens

Variant	abundance fitness
A71M	-0.017 ± 0.052
A71K	0.022 ± 0.054
A71H	0.047 ± 0.066
A71D	-0.322 ± 0.063
A71N	0.093 ± 0.13
A71S	-0.059 ± 0.042
C58M	-0.005 ± 0.045
C58L	-0.02 ± 0.033
C58W	0.032 ± 0.035
C58G	-0.031 ± 0.029
C58K	-0.058 ± 0.068
C58A	0.027 ± 0.036
C58V	-0.019 ± 0.033
C58S	0.026 ± 0.037
P62N	-0.24 ± 0.13
P62Y	-0.624 ± 0.24
P62K	-0.036 ± 0.047
P62W	-0.365 ± 0.04
P62G	-0.085 ± 0.031
P62Q	-0.167 ± 0.054
V27D	-0.727 ± 0.4

Variant	abundance fitness
M57V	-0.202 ± 0.034
M57D	-0.451 ± 0.11
M57P	-0.8 ± 0.12
K61E	-0.273 ± 0.051
K61M	-0.133 ± 0.045
K61Q	-0.017 ± 0.041
K61A	-0.05 ± 0.039
K61V	-0.065 ± 0.036
K61R	-0.02 ± 0.032
K61H	-0.183 ± 0.094
D70F	-0.059 ± 0.11
D70R	-0.049 ± 0.031
D70C	-0.201 ± 0.072
D70L	-0.09 ± 0.04
D70K	-0.046 ± 0.058
D70S	-0.063 ± 0.038
E48W	-1.17 ± 0.38
E48H	-1.19 ± 0.25
E48K	-0.705 ± 0.081
E48I	-1.02 ± 0.18
E48D	-1.11 ± 0.39

Variant	abundance fitness
E48S	-0.912 ± 0.086
E48Q	-1.16 ± 0.19
E48L	-0.836 ± 0.08
E48N	-0.871 ± 0.18
G28Q	-0.59 ± 0.47
G28A	-0.055 ± 0.11
G28C	-0.367 ± 0.22
S1F	-0.062 ± 0.2
E5T	0.013 ± 0.031
E5R	-0.003 ± 0.026
E5C	-0.005 ± 0.036
E5D	0.036 ± 0.036
E5W	-0.137 ± 0.033
E5S	0.031 ± 0.03
E5N	-0.031 ± 0.061
K14A	-0.309 ± 0.32
K55N	-0.152 ± 0.066
K55Q	0.046 ± 0.046
K55W	-0.093 ± 0.042
K55F	-0.031 ± 0.068
K55M	-0.052 ± 0.047

Variant	abundance fitness
K55H	-0.132 ± 0.099
K55Y	0.069 ± 0.081
K55I	-0.12 ± 0.13
K55E	0.016 ± 0.042
K55G	0.009 ± 0.029
K55L	0.001 ± 0.039
K55R	-0.015 ± 0.028
G32R	0.29 ± 0.27
I44G	-1 ± 0.045
I44Y	-0.569 ± 0.074
I44R	-0.86 ± 0.041
I44N	-1.1 ± 0.2
I44H	-1.02 ± 0.21
I44L	-0.149 ± 0.025
I44E	-0.794 ± 0.049
I44M	-0.377 ± 0.035
K59M	-0.056 ± 0.043
K59S	-0.033 ± 0.036
K59V	-0.086 ± 0.032
K59F	0.06 ± 0.065
K59H	-0.015 ± 0.21
